Results: patent publication US20210308031

Columns and labels:
[1] = target: (Pro-Pro-Gly)10 peptide model substrate
[2] = target: Unhydroxylated collagen purified from strain PP434 (vector MMV411)

B1: P4HA and P4HB with the His tag, expressed separately (bidirectional), encoded by plasmid MMV503 (protein)
chain 1: HPGFFTSIGQMTDLIHTEKDLVTSLKDYIKAEEDKLEQIKKWAEKLDRLTSTATKDPEGFVGHPVNAFKLMKRLNTEWSELENLVLKDMSDGFISNLTIQRQYFPNDEDQVGAAKALLRLQDTYNLDTDTISKGDLPGVKHKSFLTVEDCFELGKVAYTEADYYHTELWMEQALRQLDEGEVSTVDKVSVLDYLSYAVYQQGDLDKALLLTKKLLELDPEHQRANGNLKYFEYIMAKEKDANKSSSDDQSDQKTTLKKKGAAVDYLPERQKYEMLCRGEGIKMTPRRQKKLFCRYHDGNRNPKFILAPAKQEDEWDKPRIIRFHDIISDAEIEVVKDLAKPRLRRATISNPITGDLETVHYRISKSAWLSGYENPVVSRINMRIQDLTGLDVSTAEELQVANYGVGGQYEPHFDFARKDEPDAFKELGTGNRIATWLFYMSDVLAGGATVFPEVGASVWPKKGTAVFWYNLFASGEGDYSTRHAACPVLVGNKWVSNKWLHERGQEFRRPCTLSELE
chain 2: APDEEDHVLVLHKGNFDEALAAHKYLLVEFYAPWCGHCKALAPEYAKAAGKLKAEGSEIRLAKVDATEESDLAQQYGVRGYPTIKFFKNGDTASPKEYTAGREADDIVNWLKKRTGPAASTLSDGAAAEALVESSEVAVIGFFKDMESDSAKQFFLAAEVIDDIPFGITSNSDVFSKYQLDKDGVVLFKKFDEGRNNFEGEVTKEKLLDFIKHNQLPLVIEFTEQTAPKIFGGEIKTHILLFLPKSVSDYEGKLSNFKKAAESFKGKILFIFIDSDHTDNQRILEFFGLKKEECPAVRLITLEEEMTKYKPESDELTAEKITEFCHRFLEGKIKPHLMSQELPDDWDKQPVKVLVGKNFEEVAFDEKKNVFVEFYAPWCGHCKQLAPIWDKLGETYKDHENIVIAKMDSTANEVEAVKVHSFPTLKFFPASADRTVIDYNGERTLDGFKKFLESGGQDGAGDDDDLEDLEEAEEPDLEEDDDQKAVKDELHHHHHH
- alpha-ketoglutaric acid consumption over time [1]: The P4HA and P4HB enzymatic activity from PP548 were confirmed by the same assay as above
- % Hydroxyproline (in vitro hydroxylation, 32 C, 1 hour); enzyme from strain PP636 [2]: 0.9%
